Assay results published in PMC4889915 (Nucleic Acids Research, 2016).

T1: GST-HDA6 (Arabidopsis thaliana, UniProt Q9FML2 1-471)
T1 sequence (looked up): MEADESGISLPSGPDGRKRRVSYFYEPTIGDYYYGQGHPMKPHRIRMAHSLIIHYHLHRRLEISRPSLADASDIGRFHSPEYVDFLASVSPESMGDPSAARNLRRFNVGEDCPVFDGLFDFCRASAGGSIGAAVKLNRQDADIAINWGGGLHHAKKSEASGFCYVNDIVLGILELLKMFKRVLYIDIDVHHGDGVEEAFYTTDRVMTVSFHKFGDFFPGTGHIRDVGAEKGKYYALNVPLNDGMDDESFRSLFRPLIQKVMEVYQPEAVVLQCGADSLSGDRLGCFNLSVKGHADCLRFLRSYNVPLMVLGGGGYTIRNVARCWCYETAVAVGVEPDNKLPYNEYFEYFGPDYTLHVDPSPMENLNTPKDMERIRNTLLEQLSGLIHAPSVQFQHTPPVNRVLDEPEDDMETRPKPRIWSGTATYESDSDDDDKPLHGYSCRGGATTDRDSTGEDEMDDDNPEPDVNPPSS

T2: AtTRB3-6xHis (Arabidopsis thaliana, UniProt Q9M2X3 1-295)
T2 sequence (looked up): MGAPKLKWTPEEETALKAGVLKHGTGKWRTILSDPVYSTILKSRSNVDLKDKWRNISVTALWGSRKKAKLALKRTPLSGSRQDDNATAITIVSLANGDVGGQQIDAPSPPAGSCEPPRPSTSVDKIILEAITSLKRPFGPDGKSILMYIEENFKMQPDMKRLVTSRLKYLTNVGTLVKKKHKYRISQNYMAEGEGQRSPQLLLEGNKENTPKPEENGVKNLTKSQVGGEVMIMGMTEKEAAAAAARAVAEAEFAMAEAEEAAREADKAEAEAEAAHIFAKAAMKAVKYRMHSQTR

B1: AtTRB2-6xHis (natural protein, Arabidopsis thaliana, UniProt Q9FJW5 1-299, looked up)
chain: MGAPKQKWTPEEEAALKAGVLKHGTGKWRTILSDTEFSLILKSRSNVDLKDKWRNISVTALWGSRKKAKLALKRTPPGTKQDDNNTALTIVALTNDDERAKPTSPGGSGGGSPRTCASKRSITSLDKIIFEAITNLRELRGSDRTSIFLYIEENFKTPPNMKRHVAVRLKHLSSNGTLVKIKHKYRFSSNFIPAGARQKAPQLFLEGNNKKDPTKPEENGANSLTKFRVDGELYMIKGMTAQEAAEAAARAVAEAEFAITEAEQAAKEAERAEAEAEAAQIFAKAAMKALKFRIRNHPW
B2: GST-HDT4 (full-length) (enzyme, Arabidopsis thaliana, UniProt Q9M4T3 1-203, looked up)
chain: MEFWGIEIKPGKPFKVIQKDGFMVHASQVTLGDVEKVKKDETFAVYVKIGDDENGFMIGNLSQKFPQFSIDLYLGHEFEISHNSTSSVYLIGYRTFDAFDELDEEIDSDSELDEYMEQQIAALPQNEINPEEDDESDSDEMGLDEDDDSSDEEDVEAEAPLKVAPPSKKMPNGAFEIAKGGKKNKSSGGKKRCPFPCGPSCKK

How the values were obtained:
Assay in all cases: pull-down
[1] = biological target: T1, GST-HDA6
[2] = biological target: T2, AtTRB3-6xHis
[3] = biological target: B1

Row | binding result [1] | binding result [2] | binding result [3] | Binder
1 | binds | – | – | B1
2 | – | binds | binds | B2
